Data as given in patent EP4063497B1.

B1: anti-IMP-type carbapenemase antibody AH9 (antibody, V domains shown)
VH: VKLQQSGAELVKPGASVKISCKASGYTFTDYNMDWVKQSHGKSLEWIGDINPNYDSTRYNQKFKGKATLTVDKSSSTAYMELRSLTSEDTAVYYCARDGRYAMDYWGQGTSVTVSS
VL: DIVMTQSPSSLSVSAGEKVTLTCKSSQSLLNSGHQKNYLAWYQQKPGQPPKLLIYGASTRKSGIPDRFTGSGSGTDFTLTISSVQAEDLAVYYCQNDHRYPLTFGAGTKLELKR
B2: anti-IMP-type carbapenemase antibody 1AA4 (antibody, V domains shown)
VH: VQLVVSGGGLVNPDGSLKLSCAASGFTFSDYYMYWVRQTPEKRLEWVAIISDGGSYTYYPDSVKGRFTISRDNAKNNLYLQMSGLRSEDTAMYYCVRGSFDVWGAGTTVTVSA
VL: DIVMTQSPLTLSVTLGQPASISCRSSQSLLDSGGKTYLNWFLQRPGQSPKRLIYLVSKLDSGVPDRFTGSGSGTDFTLRISRVEAEDLGIYYCFQYTHFPQCTFGGGTTLEIKR

Biological target: IMP-4-type carbapenemase
Assay: indirect ELISA, plate coated with IMP-4-type carbapenemase at 0.2 ug/mL, purified antibody serially diluted from 1:1,000
Conditions: scale: dilution factor

Row | Binder | titer
1 | B1 | > 640000
2 | B2 | > 640000
